Results from patent publication US6555328.
Numbering of substitutions follows the chain as printed. In names and notes the source's numbering stands.

T1: Flag-tagged hPER1 (human Period 1, full-length open reading frame, amino acids 1 to 1289), O15534
T1 chain: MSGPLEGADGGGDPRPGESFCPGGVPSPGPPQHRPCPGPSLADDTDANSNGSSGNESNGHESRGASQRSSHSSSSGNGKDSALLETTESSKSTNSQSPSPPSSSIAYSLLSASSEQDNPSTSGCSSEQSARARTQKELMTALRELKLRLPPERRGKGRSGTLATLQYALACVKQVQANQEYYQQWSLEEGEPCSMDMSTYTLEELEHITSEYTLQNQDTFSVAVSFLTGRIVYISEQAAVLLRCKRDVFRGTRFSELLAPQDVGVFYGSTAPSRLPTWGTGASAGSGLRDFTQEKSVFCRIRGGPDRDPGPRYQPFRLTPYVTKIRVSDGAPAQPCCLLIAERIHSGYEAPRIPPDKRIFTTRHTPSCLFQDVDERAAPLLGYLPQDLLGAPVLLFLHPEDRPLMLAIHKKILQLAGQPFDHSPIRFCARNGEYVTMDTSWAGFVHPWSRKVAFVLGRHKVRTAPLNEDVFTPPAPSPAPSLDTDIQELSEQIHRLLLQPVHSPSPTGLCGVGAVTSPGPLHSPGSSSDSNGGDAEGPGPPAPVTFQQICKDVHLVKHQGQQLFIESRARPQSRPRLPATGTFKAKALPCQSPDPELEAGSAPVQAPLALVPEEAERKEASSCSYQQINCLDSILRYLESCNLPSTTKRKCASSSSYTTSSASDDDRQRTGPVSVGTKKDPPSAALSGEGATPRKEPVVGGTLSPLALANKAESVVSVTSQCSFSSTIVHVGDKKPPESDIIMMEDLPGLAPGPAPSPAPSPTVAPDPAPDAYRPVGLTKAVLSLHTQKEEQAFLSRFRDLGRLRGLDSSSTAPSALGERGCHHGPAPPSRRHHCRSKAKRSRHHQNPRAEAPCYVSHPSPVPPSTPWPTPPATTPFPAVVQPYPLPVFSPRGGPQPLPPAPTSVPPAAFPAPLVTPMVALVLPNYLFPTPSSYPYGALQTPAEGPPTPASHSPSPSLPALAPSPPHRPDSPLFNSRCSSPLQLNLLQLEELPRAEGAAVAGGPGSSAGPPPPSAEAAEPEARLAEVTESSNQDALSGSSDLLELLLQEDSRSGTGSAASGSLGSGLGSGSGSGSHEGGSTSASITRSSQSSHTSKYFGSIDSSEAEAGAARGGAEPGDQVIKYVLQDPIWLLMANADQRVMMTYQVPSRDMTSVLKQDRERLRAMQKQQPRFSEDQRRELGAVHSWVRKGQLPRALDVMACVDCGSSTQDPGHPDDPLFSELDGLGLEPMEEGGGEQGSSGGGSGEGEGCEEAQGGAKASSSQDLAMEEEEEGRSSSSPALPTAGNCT

T2: hPER2-C-terminal YGFP protein (human Period 2, full-length ORF), O15055
T2 sequence (O15055 whole entry, looked up): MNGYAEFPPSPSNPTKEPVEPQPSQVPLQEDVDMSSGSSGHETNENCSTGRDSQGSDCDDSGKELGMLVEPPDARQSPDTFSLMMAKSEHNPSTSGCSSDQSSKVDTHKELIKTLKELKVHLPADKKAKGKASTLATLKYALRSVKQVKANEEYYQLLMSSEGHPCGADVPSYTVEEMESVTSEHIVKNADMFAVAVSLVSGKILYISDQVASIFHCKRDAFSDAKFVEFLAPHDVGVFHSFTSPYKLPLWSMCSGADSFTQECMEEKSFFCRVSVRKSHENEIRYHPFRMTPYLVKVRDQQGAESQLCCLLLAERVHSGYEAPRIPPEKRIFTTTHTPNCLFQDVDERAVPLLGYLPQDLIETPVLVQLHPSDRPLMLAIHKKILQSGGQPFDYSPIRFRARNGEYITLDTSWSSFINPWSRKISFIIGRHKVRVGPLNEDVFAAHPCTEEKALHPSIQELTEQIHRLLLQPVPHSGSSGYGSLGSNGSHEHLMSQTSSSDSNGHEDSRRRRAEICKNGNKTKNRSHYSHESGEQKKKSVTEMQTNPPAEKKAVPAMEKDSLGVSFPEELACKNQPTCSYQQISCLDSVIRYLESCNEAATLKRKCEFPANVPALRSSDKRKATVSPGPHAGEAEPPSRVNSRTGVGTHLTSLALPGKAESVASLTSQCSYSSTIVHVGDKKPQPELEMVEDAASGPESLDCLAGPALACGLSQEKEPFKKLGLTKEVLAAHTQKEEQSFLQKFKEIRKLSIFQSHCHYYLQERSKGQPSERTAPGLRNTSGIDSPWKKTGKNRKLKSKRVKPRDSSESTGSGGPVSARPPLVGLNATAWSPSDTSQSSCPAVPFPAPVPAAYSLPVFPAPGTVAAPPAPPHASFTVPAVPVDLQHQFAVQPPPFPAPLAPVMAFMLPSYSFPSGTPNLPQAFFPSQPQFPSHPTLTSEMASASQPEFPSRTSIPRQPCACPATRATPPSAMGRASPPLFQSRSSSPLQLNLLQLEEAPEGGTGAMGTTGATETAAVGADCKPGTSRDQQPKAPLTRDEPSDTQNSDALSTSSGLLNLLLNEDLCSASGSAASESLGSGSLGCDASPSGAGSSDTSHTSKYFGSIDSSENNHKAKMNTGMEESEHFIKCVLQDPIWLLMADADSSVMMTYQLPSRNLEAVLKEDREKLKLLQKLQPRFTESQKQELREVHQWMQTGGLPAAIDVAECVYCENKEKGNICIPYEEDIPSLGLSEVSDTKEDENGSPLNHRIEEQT

B1: HA-tagged hCKIε (human casein kinase I ε, wild type, expressed from pCEP4-CKIε in 293T cells) (protein)
chain: YPDYDVPDYAMELRVGNKYRLGRKIGSGSFGDIYLGANIASGEEVAIKLECVKTKHPQLHIESKFYKMMQGGVGIPSIKWCGAEGDYNVMVMELLGPSLEDLFNFCSRKFSLKTVLLLADQMISRIEYIHSKNFIHRDVKPDNFLMGLGKKGNLVYIIDFGLAKKYRDARTHQHIPYRENKNLTGTARYASINTHLGIEQSRRDDLESLGYVLMYFNLGSLPWQGLKAATKRQKYERISEKKMSTPIEVLCKGYPSEFSTYLNFCRSLRFDDKPDYSYLRQLFRNLFHRQGFSYDYVFDWNMLKFGAARNPEDVDRERREHEREERMGQLRGSATRALPPGPPTGATANRLRSAAEPVASTPASRIQPAGNTSPRAISRVDRERKVSMRLHRGAPANVSSSDLTGRQEVSRIPASQTSVPFDHLGK
B2: recombinant his-tagged wild-type hCKIε, expressed in E. coli and purified (protein)
chain: MELRVGNKYRLGRKIGSGSFGDIYLGANIASGEEVAIKLECVKTKHPQLHIESKFYKMMQGGVGIPSIKWCGAEGDYNVMVMELLGPSLEDLFNFCSRKFSLKTVLLLADQMISRIEYIHSKNFIHRDVKPDNFLMGLGKKGNLVYIIDFGLAKKYRDARTHQHIPYRENKNLTGTARYASINTHLGIEQSRRDDLESLGYVLMYFNLGSLPWQGLKAATKRQKYERISEKKMSTPIEVLCKGYPSEFSTYLNFCRSLRFDDKPDYSYLRQLFRNLFHRQGFSYDYVFDWNMLKFGAARNPEDVDRERREHEREERMGQLRGSATRALPPGPPTGATANRLRSAAEPVASTPASRIQPAGNTSPRAISRVDRERKVSMRLHRGAPANVSSSDLTGRQEVSRIPASQTSVPFDHLGK
B3: hCKIε-K38R, kinase-negative mutant of hCKIε, expressed in 293T cells (protein)
chain: B2 chain with K38R
B4: recombinant histidine-tagged hCKIε-K38R, expressed in bacteria and purified (protein)
chain: B2 chain with K38R

What was measured:
[1] = target: T1, Flag-tagged hPER1 (human Period 1, …)
[2] = target: T2, hPER2-C-terminal YGFP protein (human …)

Sequence of GST-IkBα (P25963 whole entry): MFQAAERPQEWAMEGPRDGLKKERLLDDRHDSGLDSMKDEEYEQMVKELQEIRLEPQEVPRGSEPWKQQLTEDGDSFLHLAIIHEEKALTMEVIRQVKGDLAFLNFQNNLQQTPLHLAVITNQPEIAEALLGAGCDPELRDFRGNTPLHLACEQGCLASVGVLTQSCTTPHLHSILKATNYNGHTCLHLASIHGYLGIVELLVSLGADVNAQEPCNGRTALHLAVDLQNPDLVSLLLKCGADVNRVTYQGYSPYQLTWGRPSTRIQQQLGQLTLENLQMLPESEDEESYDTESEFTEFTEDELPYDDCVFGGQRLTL

Protein	P32 incorporation [1]	P32 incorporation into hPER2 in cpm [2] [cpm]	Shift in hPER2 migration [2]	in vitro kinase assay, 32P autoradiography [1]	in vitro kinase assay, 32P autoradiography (casein)	in vitro kinase assay, 32P autoradiography (GST-IkBα)
B1	co-transfection of hPER2 or hPER1 with CKIe resulted in the incorporation of p32 into both PER proteins	5000	+			
B2				The presence of hCKIε results in phosphorylation of hPER1	Recombinant hCKIε phosphorylates both casein and IkBα substrates	Recombinant hCKIε phosphorylates both casein and IkBα substrates
B3		3000	-			
B4				hCKIε-K38R has no kinase activity towards hPER1	does not phosphorylate either casein or GST-IkBα substrates	does not phosphorylate either casein or GST-IkBα substrates
